Experimental data taken from patent US20160130575.

Biological target: alpha-thrombin (Homo sapiens) (UniProt P00734+P00734)
Assay: flow
Conditions: bead-based fluorescence; measured here; sequence not given

Substance | Kd
Bock thrombin aptamer | 2.1 nM
Tasset thrombin aptamer | 10.4 nM
